The text below walks through data of a protein production outcome set (Wang et al. 2014).

This series in a line: label from the status in PepcDB records.
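Note: failed if final PepcDB status was selected cloned or expressed and not failed if soluble or beyond.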

For “MPSAMNERTVAELEKLLRYIAANLKQRGREILTNYPITPPQFVALQWLLEEGDLTVGELSNKMYLACSTTTDLVDRMERNGLVARVRDEHDRRVVRIRLLEKGERIIEEVIEKRQRDLANVLESFSDEEIVVFERCLRKLHQEMTKE”, the protein production result was “not failed”.

On to “MPSDSLRVGVLTGGGDCPGINAALRAVTKSLTLQHDAEVLGFLDGFRGVVDRNVEPLHYRDVSGILTRGGTILGASNKADPFNYLPRGGADVSAQVMRTYRTLDLDALVAIGGDGTMSIAHRLTDLGVDIVGVPKTIDNDLVGTDRTVGFDTAVSTATDAIDRIHTTAQSHHRVMIVETMGRYSGWIALHAGVASGTDVILLPEIEYEVETVADVCRDRERSGQRFTIVAVAEGARRKEGDYVVQERGDEYTDSIRLGGISRVLADQLREHLDTSIRTTVLGHMQRGGSPTAYDRTLATTLGTRAATLVAEGTTGVMVAVQNDAFTQVPLDEIAGKTRTVPLDDPLIASGLDVGTSFGVAVSDLSEAASHSKPASPIQP”, for which the protein production result is given as “failed”.

Regarding “MPSEKQPQSKGNKMAILKLDEHLYISPQLTKADAEQIAQLGIKTIICNRPDREEESQPDFAQIKQWLEQAGVTGFHHQPVTARDIQKHDVETFRQLIGQAEYPVLAYCRTGTRCSLLWGFRRAAEGMPVDEIIRRAQAAGVNLENFRERLDNARV”, the protein production entry was “not failed”.

For the sequence “MPSFRITRKVRHSATQMYDLVADIERYPEFLPLCESLRVLRDAEGPNGTTVRVAEMGVGYKAIRERFTTRVSLDRENRKIVAEYIDGPFRHLENRWSFRDAEGGGCEVDFFITYEFKSRTLGLLMGTMFDRAFRKFTDAFEGRATAIYGVPA”, the protein production result is “failed”.

In the case of “MPSGLEQCAPRCRALLQGESGVQIQGHYELKFEAVREAFAALFEDSQERGAALCIQVGGETVIDLWAGTADKDGAEAWHSDTIANLFSCTKTFTAVTALQLVAEGKLKLDAPVADYWPEFAAAGKAAITLRQLLCHQAGLPAVRELLPAQALYEWQTMVDALAAEQPWWTPGEGHGYAAITYGWLVGELIRRADGRGPGESIVARVARPLGLDFHVGLADEEFYRVAHIARGKGNMGDAAAQRLLQVTMREPDAMSTRAFTNPPSILTSTNKPEWRRMQQPAANGHGNARSLAGFYSGLLDGSLLEADMLEELTREHSLGMDKTLLTQTRFGLGCMLDQPQVANATFGLGARAFGHPGAGGSIGFADPEHDVAFGFVTNTLGPYVLMDPRAQKLVRVLSDCLLEHHHHHH”, the protein production entry was “failed”.

For “MPSIIDETVFGEPSRRLAVVYLCGALLLAGQQGYYVIIEGATPFYAGLLLSAGMALSGIAESLPKPRRRAAGVLRLTALVVLVSLLVILFVTPDLLTN”, the protein production entry is recorded as “failed”.

For “MPSIISDNPKNWSEEIKNYLCRSSPERYEKMATNNAIEPYISKAISWGYAEWKNRKTLLDDIETEMLRLATLPDLSDFNDNEIYSSKKNYLSKEILENYLIKASPENFNTVFRQPGWKSHVNFLIEKGNRELERQIINGNGVENSVDTVCAELAKLMNDFENSFFDEIYGNSTPRYLLPNLFEKAIAEYKLLATIKERTRFIEAFIEIVMFDWQFSGTLDSDLFKNAYSKEVLYYYGIGARLFVLGEFKEAQEYFKKIINIEPKPIDYLMLSKTYRALNEKVETFNTIKDGLTHFPNDFLLTLALSGTLYWMGETKLANETLEPVKKDFNTMYKSEIEGAKKLAVEISEAIKCDKIYRDQKNDIYDDKYTKKAWYQYWYHYNCFRPTQHPEAYMIDYIPRYLTSIAKDATITLKGVLDFGTLCAEPLYRFAKNNPEIQCVGIDRQDLVKELNDKAYSLNNLRFEAGDIFEYLEHFALLVPNHRMLFHCRTAVLCYPNFLLKLYKKCAELGIEYICLMESNSLSRDTLTFYNYGEMPNISIARRGSLINHDYFLLLEQSGYEIVKKDFHLAPHLLEDYAALIGSNTTLVAQLKLLTQSQ”, the protein production entry is reported as “failed”.

Turning to “MPSLFSLYRKIFFGRKPGWDQQPLPYIKVTAPNVRVSEAKISQYAQVCGFDFDGKLLPPTYLYVMAFRLHAVIFTHDGITFPLLGMIHLKNRIQVYRPAAVDEVFALECALTTSRETDSGLEFEFVSKAFVGEELVWESLSTYLYRIETAGRRVRPPKALDMAWDSPQSWELGEDLGRRYAKASGDYNLIHLHPMLSKRFGFDRVLAHGMWSKARCLAELMPEIGERPFVVDVAFKLPLLMPAEVGFGYEKTEDKWVFELRDSKGRRPHLSGEVQL”, the protein production result is “failed”.

“MPSPVEADAKVTMRLRYTKTGAMRYLSHLEMIGLFTRAVGRARLPIRFSQGFHPHPKFSFATALSVGVESWAEYLDMELIPSLTPGEVRDRLNAALPEGMRIVEAVVIPPGTPSLSVLMDKVRYRIILLEEAARDLAARAEAFLARDSFPLRRAKKGRIQEYDLEHHHHHH”: the protein production entry was “failed”.

Take “MPSQDYLRVLNPSLSGPTPIAFIILALISAGLLIIIWRNRDLISTDNLRGKIIFIVISAALIFTFGRISFALSEVLIFLWALSILWIRGNTDNIEMNLAMAAWVLAYLYMHSFHPVKADRYIITVLPALAYAISLSLNNLSALMRSRRASTVLSIAVTLLMVSSAIHYTAGWPQEYGIVKGERSGAWLMNHDPSYRDRVIAADRGPAFTWYLGDYVFTRIIHPQRRELSLKYFYEVNPDYYIFWTGKTELPEGYRVIYSRDGVPLPGRFSRYAGILPLRYRIQWMLR”: the protein production result is listed as “failed”.

Regarding “MPSRRRFVLALAAALPAAGLLSACGFHLRGNNDFAFKRLYINLPQNSQMRAQLRRLIDNGSDTVVVSDKQDADAFLDVLSENRVKTISSLTPQGVVREYRITYRFSFQLRDAHDNLLIPPSEITLFRDLSYNETQVLAKDYEEAALYRDMQGDIVNQLVRRLASVRLPSLEHHHHHH”, the protein production result is given as “failed”.

“MPTALGYVSIGLACGIIGAPYVTPVEMGLMSLFVYAGSAQFAMLALIVVQAPVAAIAMTVFLINLRLFLLSLHASTYFRHTSLWYNIGMSSILTDETYGVLMGELAHTDKVNPMWMHGNNLNSYVAWFVGTVVGTALGGLLPNPEIFGLDFALVGMFIGIFASQFQIMQRRIPVRNLLIILAVVAVSFFLLLTVMSQSLAVLFATLLGCSMGVVLDGQ”: the protein production entry is recorded as “failed”.

In the case of “MPTFLLVNDDGYFSPGINALREALKSLGRVVVVAPDRNLSGVGHSLTFTEPLKMRKIDTDFYTVIDGTPADCVHLGYRVILEEKKPDLVLSGINEGPNLGEDITYSGTVSGAMEGRILGIPSIAFSAFGRENIMFEEIAKVCVDIVKKVLNEGIPEDTYLNVNIPNLRYEEIKGIKVTRQGKRAYKERVFKYIDPYGKPFYWIAAEEFGWHAEEGTDYWAVLNGYVSVTPLHLDLTNYKVMKSIKYLEDSP”, the protein production result was “not failed”.

Regarding “MPTIRINKLTDPVVFLHILFFLIIASSSLTYWKMSDYAVNQSWDAYFYKYSDYLDLVPTWEKILKDAFSLVLLLASIYFPRRKILDFSPNINLQRYYLSFILLFFLSLSNLFASRDVTNLTLFTIVAVIRPFLITASLLFFCHKHLNFFYFRIILECVNIIGIIQVYHSFLQRNSAIINNGLDWLHSGSARSVGTFADPNTLGRFLALLIMVNLFMLPPNIIRFFLIISYGIALFFTGSRASLLIIGIFILLFVAIKLSRQSIASTRAKNLTFAFLLTVPLLQFLLLRINLISNRADDTASPLQDGRYHILFNLINRLNPYEFIFGNYLGYGSNALILTGYDGSNFLSDSTPASLIGQFGITGLLLFILIVINLFKQTPRHININNSQDYLVLTGDLLQSRNALSFYLIISCFTTIIFESYAVIPILLGLIFYDNLDLKNIKF”, the protein production result is “failed”.

Turning to “MPTLIVLIGPTGVGKTELSLRLAENFHTSIVSADSRQLYAELKIGTAAPTPDQLKRVPHYLVGTLHLTDYYSAAQYEQEAMEILHQLFTEHEVVVLTGGSMMYVDAICKGIDDIPTVDAETRQVMLQKYEEEGLEQLCAELRLLDPDYYRIVDLKNPKRVIHALEICYMTGKTYTSFRTQQKKERPFRILKIGLTRDREELYDRINRRVDQMMEEGLLDEVRSVLSYRHLNSLNTVGYKELFKYLDGEWELPFAIEKIKQNSRIYSRKQMTWFKRDEEIRWFHPEQETEILEYLRLQNLTHLPSLDTFLEHHHHHH”, the protein production result is recorded as “not failed”.

As to “MPTLKSYFLKDTSLRTEILAGATTFLTMVYIVFVNPKVLHDAGMDQGAVFTATCLITAFACALTGFIANTPIGVAPSVALNIYFSYSVVQGMGVDWQHALAMVFISGLLFLFLTLTKLRRLLVEAIPHNLQIAIVIGISLLIALIALENNQIIIGDQHNLMRLGSIIRPETGLFFLGFILILTLDYHKIPGAIIIGILSISVLSLILGLTSWQGLIAMPPSLEPTFLQLDFSGLSSIVALKTIFTFFLITVFDATGSLIGLLSPTIFKHEKNYYKRLTRSLTADAAASSLAGLMGSASTSPYIESATGIEAGGRTGLTALVIATGFILMLFLFPLAKMIPSFAVGPALLYVACCMIKHITNMKLQDITETAPCMVIIMMVPFTASIADGIGLGIILYTLLKLFTRQKPNPLIIVLSLVFTVFFLIN”, the protein production entry is reported as “failed”.

Take “MPTPAPSADSTAERRHREKDTPLHRAARRGDADAVRELLARGAEIDALDDKGRTPYRLALDAGHPEIARWLAAAGADRHRSAAGTPGESEKRPRHPPSRLSSKDGIDGYPGWPALTVAAWRGHASTVETLLARGADVAARAPDGHTPLTRAAWNGHAGIVKILLAHGAEADVATPDGRTALMWAAREGHGEVVAVLAAAGARLDATDGDGNTALSWAAQRGKATTVRVLCSLGAATGVARKDGRTPIMLAALGGHPESVEVLLAASADPNATDADGHTALWHAVDGGHSGIVEILLAHGASFDRDRAPGHDALARAAWKGDEKTAGLLLAYGARVDAPSGDGNTALAVAAGRGHAGVIRLLLRKGANPDRRNRRNMTALMLAAQAGHSETVAALLEAGADPTLRNRHRHTAVSLARAGGHEDCVKILEKHRVGRRTLLGFLW”: the protein production entry is “failed”.

Take “MPTPGTGSVPELQLVPFQLGHFPILQRWFATEKELVQWAGPALRHPLSLEQMHEDLAESRRRPPLRLLWSACRDDQVIGHCQLLFDRRNGVVRLARIVLAPSARGQGLGLPMLEALLAEAFADADIERVELNVYDWNAAARHLYRRAGFREEGLRRSATRVGRERWNVVLMGLLRQEWAAGGAGND”: the protein production result is “not failed”.

For the sequence “MPTPRPEPAAPPGNNQAGPPAGGPIISPTDLIAIQPPRAVAGDFVPDEVLVTVDGDAGAVQQIAASFGLEVRSQRQSRLLGTTLVRFGIPDGRPVGVVLAQLAADGRTQRREPNHIYSLQQAAGIVNYAFDRIALDAKQASGENIRVAVIDTGIDDTNPALAGVIAAQFDAMPGVPVEKRDHGTSIDGLIAGVGALEGMAPGARIYHARAFEGGKSTMDVILSALDWAAEQNVSIINMSFVGPKNDLLGAACRNARALGMVLVAAAGNNGPKAPYGYPAAFDGVIAVTATDAKDALMPQANRGAYVFISAPGVEMVAPSGAGSDVVTGTSFAAAIVSGAIANLLHASPGRTADDIEKALAATAKDLGPKGRDNDFGYGLLDIKAAEAAKE”, the protein production entry is “failed”.

On to “MPVSIFMTVVNKSGVLARVTAEIAKADSNIDDITLENDKDYTTMRFILQTRDRQHLAQIFRRLKHIDEIVKMGRIKNLLEHHHHHH”, for which the protein production entry is reported as “not failed”.

Turning to “MPVVDIDPDELRRLTGHRSKDDDELRQDLFGLGIEYEGETEDGDFKLEFEADRLDRLSVEGIARSLRYHAGDDRGVDIPDTNAPEWAIDVTDVPADRPYVTGAVIRGVDLDADALDSLIQLQEKLHATMGRKRAKGAIGIHDLAMLKGDTVDGDGTAARSLTYTGIDPDGDTFVPLDDDAERTPADVLTEHPTGETYADLLADHDTYPAIYDDIGLFSFPPVINGRRTEVTTDSRELFVELTGTDQWTIDRMCAIICYALDARGATIEDVTVDYPDRELHRPDFAVRTKHVSHDRIETLLGVEFTTEAVVDLAERAGLDATPTDDGYDVEIPPYRVDVRHPVDVVDDLGRAYDFNDLTPRYPDVNTIGGRTESSRLERSVRQALVGLGFEDLLNFNMTSEAENFDRMRLTPDHDAVGAAQPATIAEPYSQDFTILRTWALPSLAMVLETNTHHAYPQDLAEVGFAAHADGDTQTGVAERRTVAAVLARNDASYEDAKARLQALCDEFAVALETPPTTHPSFIDGRAATIEIDGQPAGVIGELHPGVIVEHDVEVPVAGFEFELDALR”, the protein production entry was “failed”.
